Consider five substances from paper PMC7203109.

The test system of series [1] is GST-RBR (ATRX RNA binding region) (Homo sapiens). The experiment in a line: pull-down qPCR. Particulars: 2 ug protein; Pull-down: 2 mM MgCl2, 100 U/ml RNase inhibitor, 0.1 mg/ml yeast tRNA, 0.05% BSA, 0.2% NP-40, 4 °C overnight, washes 150 and 15 mM NaCl; EMSA: 50 mM Tris pH ….
Series [2] concerns FLAG-ATRXΔRBR-HA (Homo sapiens). Description: pull-down qPCR. The conditions noted are these: 2 ug protein; Pull-down: 2 mM MgCl2, 100 U/ml RNase inhibitor, 0.1 mg/ml yeast tRNA, 0.05% BSA, 0.2% NP-40, 4 °C overnight, washes 150 and 15 mM NaCl; EMSA: 50 mM Tris pH …. (Mobility shift assays separate free from complexed probe on a gel.)
In series [3] the test system is FLAG-ATRX-HA (full-length hATRX) (Homo sapiens). Description: pull-down qPCR. The conditions noted are these: 2 ug protein; Pull-down: 2 mM MgCl2, 100 U/ml RNase inhibitor, 0.1 mg/ml yeast tRNA, 0.05% BSA, 0.2% NP-40, 4 °C overnight, washes 150 and 15 mM NaCl; EMSA: 50 mM Tris pH ….
Series [4] deals with GST-RBR (ATRX RNA binding region) (Homo sapiens). Description: competition pull-down RT-qPCR. Particulars: Pull-down: 2 mM MgCl2, 100 U/ml RNase inhibitor, 0.1 mg/ml yeast tRNA, 0.05% BSA, 0.2% NP-40, 4 °C overnight. For orientation: In qPCR the cycle at which signal appears reflects the starting amount.
Series [5] has the same test system. Description: pull-down RT-qPCR. Particulars: Pull-down: 2 mM MgCl2, 100 U/ml RNase inhibitor, 0.1 mg/ml yeast tRNA, 0.05% BSA, 0.2% NP-40, 4 °C overnight, washes 150 and 15 mM NaCl, EMSA: 50 mM Tris pH ….
The subject of series [6] is FLAG-ATRX-HA (full-length hATRX) (Homo sapiens). The experiment in a line: pull-down RT-qPCR. Particulars: 2 ug protein, Pull-down: 2 mM MgCl2, 100 U/ml RNase inhibitor, 0.1 mg/ml yeast tRNA, 0.05% BSA, 0.2% NP-40, 4 °C overnight, washes 150 and 15 mM NaCl, EMSA: 50 mM Tris pH ….
Series [7] has the same test system. Description: EMSA. Particulars: 5 mM Mg2+, yeast tRNA competitor; citation to ref 11 stands next to the value; Pull-down: 2 mM MgCl2, 100 U/ml RNase inhibitor, 0.1 mg/ml yeast tRNA, 0.05% BSA, 0.2% NP-40, 4 °C overnight, washes 150 and 15 mM NaCl; EMSA: 50 mM Tris pH ….
Series [8] concerns FLAG-ATRX helicase domain (F6). The experiment in a line: pull-down RT-qPCR. Particulars: 25 pmol protein; binds, less than GST-RBR; Pull-down: 2 mM MgCl2, 100 U/ml RNase inhibitor, 0.1 mg/ml yeast tRNA, 0.05% BSA, 0.2% NP-40, 4 °C overnight, washes 150 and 15 mM NaCl; EMSA: 50 mM Tris pH ….
Series [9] has as its system FLAG-ATRXΔRBR-HA (Homo sapiens). The experiment in a line: pull-down RT-qPCR. Particulars: 2 ug protein, yeast tRNA; Pull-down: 2 mM MgCl2, 100 U/ml RNase inhibitor, 0.1 mg/ml yeast tRNA, 0.05% BSA, 0.2% NP-40, 4 °C overnight, washes 150 and 15 mM NaCl; EMSA: 50 mM Tris pH ….

One may read the Kd as the constant that tells how readily two partners part at equilibrium.

Regarding Xist Repeat A DNA, 435 bp, the binding signal in [1] came to 0.002 % input; in series [2] it was 0.23 % input; in series [3] it was 0.478 % input.

Take MBP RNA, 300 nt: the binding signal in series [4] (mixed with 5 ug Repeat A RNA, washes 150 and 15 mM NaCl, EMSA: 50 mM Tris pH …) was determined as 0.0666 % input; in series [5] (0.5 ug protein), 0.142 % input; in series [5] (1 ug protein), 0.189 % input; in series [5] (2 ug protein, yeast tRNA), 0.974 % input; in series [5] (2 ug protein), 0.183 % input; in series [5] (3 ug protein) it was 0.22 % input. The substance further gave a binding signal in series [6] of 1.28 % input.

As to MBP DNA, 300 bp, the figures for the binding signal in series [1], in series [2] and in series [3] were 0.000184 % input, 0.185 % input and 0.197 % input, respectively.

In turn, Xist Repeat A RNA, 192-nt fragment gave a Kd in series [7] of 17.9 nM.

On to Xist Repeat A RNA, 435 nt, for which the binding signal in [4] (mixed with 5 ug MBP RNA, washes 150 and 15 mM …, EMSA: 50 mM Tris pH 8.0) was 3.04 % input; in series [8], 0.741 % input; in series [5] (25 pmol protein), 1.8 % input; in series [5] (0.5 ug protein), 0.342 % input; in series [5] (1 ug protein), 1.99 % input; in [5] (2 ug protein, yeast tRNA) it was 3.08 % input. The binding signal stood at 2.92 % input in series [5] (2 ug protein), 9.29 % input in series [5] (3 ug protein), 3.43 % input in series [9] and 8 % input in series [6] (yeast tRNA).
